From US20180016312A1 (Pieris, published 2018) come the findings set out here.

Substitutions are numbered along the chain they refer to.

The target of test [1] is T1, hNGAL lipocalin mutein SEQ ID NO: 7.
T1 construct: Mutein of mature hNGAL; Biotinylated with NHS-PEG4-Biotin for the SPR assay
T1 chain: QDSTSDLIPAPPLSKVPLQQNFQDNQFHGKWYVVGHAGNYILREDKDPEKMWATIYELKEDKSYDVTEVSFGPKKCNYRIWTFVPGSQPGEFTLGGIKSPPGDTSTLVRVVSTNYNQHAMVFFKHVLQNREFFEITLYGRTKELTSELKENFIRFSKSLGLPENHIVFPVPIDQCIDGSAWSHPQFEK
Put plainly: solution competition ELISA; 0.1 nM SEQ ID NO: 7 with varied soluble ligand, free mutein captured on immobilised hAng-2. The procedure: (§1) In the following detailed experimental protocol, incubation and washing steps were performed as described above in the competition ELISA protocol (see Example 5).
(§2) The residual supernatants were discarded and 20 μl HRP-labeled anti-lipocalin-mutein antibody was added at a predetermined optimal concentration in PBS-T/BSA and incubated for 1 h at RT. […] After washing, 20 μl fluorogenic HRP substrate (Quantablue, Pierce) was added to each well, and the reaction was allowed to proceed for 60 minutes. The fluorescence intensity of every well on the plate was read using a Genios Plus Microplate reader (Tecan).

Test [2] deals with benchmark antibody 1 (SEQ ID NOs: 17/18). As to the kind of experiment: solution competition ELISA; 0.1 nM SEQ ID NO: 17/18 with varied soluble ligand, free antibody captured on immobilised hAng-2. For orientation: ELISA stands for enzyme-linked immunosorbent assay.
Test [3] addresses T2, hNGAL lipocalin mutein SEQ ID NO: 11.
T2 construct: Mutein of mature hNGAL; Biotinylated with NHS-PEG4-Biotin for the SPR assay
T2 chain: T1 chain with H36Q, E49V, P100L, D103G
As to the kind of experiment: solution competition ELISA; 0.1 nM SEQ ID NO: 11 with varied soluble ligand, free mutein captured on immobilised hAng-2. The procedure:
as §1, §2

In test [4] the target is T3, hNGAL lipocalin mutein SEQ ID NO: 8.
T3 construct: Mutein of mature hNGAL; Biotinylated with NHS-PEG4-Biotin for the SPR assay
T3 chain: T1 chain with H36Q, E49G, P73A, P100D, D103G
Put plainly: solution competition ELISA; 0.1 nM SEQ ID NO: 8 with varied soluble ligand, free mutein captured on immobilised hAng-2. The procedure: as §1, §2

Test [5] deals with T4, hNGAL lipocalin mutein SEQ ID NO: 9.
T4 construct: Mutein of mature hNGAL; Biotinylated with NHS-PEG4-Biotin for the SPR assay
T4 chain: T1 chain with E49G, D103G
Put plainly: solution competition ELISA; 0.1 nM SEQ ID NO: 9 with varied soluble ligand, free mutein captured on immobilised hAng-2. The procedure:
as §1, §2

Test [6] addresses T5, hNGAL lipocalin mutein SEQ ID NO: 3.
T5 construct: Mutein of mature hNGAL
T5 chain: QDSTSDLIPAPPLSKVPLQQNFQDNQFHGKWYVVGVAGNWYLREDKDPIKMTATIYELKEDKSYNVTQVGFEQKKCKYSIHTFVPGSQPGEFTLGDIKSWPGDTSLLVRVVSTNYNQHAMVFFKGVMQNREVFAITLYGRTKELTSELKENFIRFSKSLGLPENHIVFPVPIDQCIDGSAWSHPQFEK
As to the kind of experiment: solution competition ELISA; 0.1 nM SEQ ID NO: 3 with varied soluble ligand, free mutein captured on immobilised hAng-2. The procedure: as §1, §2

The target of test [7] is T6, hNGAL lipocalin mutein SEQ ID NO: 1.
T6 construct: Mutein of mature hNGAL
T6 chain: T1 chain with H36Q, E49G, D65N, E68G, R79T, D103G
As to the kind of experiment: solution competition ELISA; 0.1 nM SEQ ID NO: 1 with varied soluble ligand, free mutein captured on immobilised hAng-2. The procedure:
as §1, §2

B1: human angiopoietin-1 (ligand, UniProt Q15389 20-498, looked up)
chain: SNQRRSPENSGRRYNRIQHGQCAYTFILPEHDGNCRESTTDQYNTNALQRDAPHVEPDFSSQKLQHLEHVMENYTQWLQKLENYIVENMKSEMAQIQQNAVQNHTATMLEIGTSLLSQTAEQTRKLTDVETQVLNQTSRLEIQLLENSLSTYKLEKQLLQQTNEILKIHEKNSLLEHKILEMEGKHKEELDTLKEEKENLQGLVTRQTYIIQELEKQLNRATTNNSVLQKQQLELMDTVHNLVNLCTKEGVLLKGGKREEEKPFRDCADVYQAGFNKSGIYTIYINNMPEPKKVFCNMDVNGGGWTVIQHREDGSLDFQRGWKEYKMGFGNPSGEYWLGNEFIFAITSQRQYMLRIELMDWEGNRAYSQYDRFHIGNEKQNYRLYLKGHTGTAGKQSSLILHGADFSTKDADNDNCMCKCALMLTGGWWFDACGPSNLNGMFYTAGQNHGKLNGIKWHYFKGPSYSLRSTTMMIRPLDF
notes: Bought recombinant protein; also called human Ang-1; hAng-1
By IC50 is commonly meant the concentration that inhibits the measured activity by half. Regarding B1, the IC50 in test [1] is 0.47 nM; in test [2], 26 nM; in test [3], 0.89 nM; in test [4], 9.3 nM; in test [5], 1.9 nM.

B2: human angiopoietin-2 (ligand, UniProt O15123 19-496, looked up)
chain: YNNFRKSMDSIGKKQYQVQHGSCSYTFLLPEMDNCRSSSSPYVSNAVQRDAPLEYDDSVQRLQVLENIMENNTQWLMKLENYIQDNMKKEMVEIQQNAVQNQTAVMIEIGTNLLNQTAEQTRKLTDVEAQVLNQTTRLELQLLEHSLSTNKLEKQILDQTSEINKLQDKNSFLEKKVLAMEDKHIIQLQSIKEEKDQLQVLVSKQNSIIEELEKKIVTATVNNSVLQKQQHDLMETVNNLLTMMSTSNSAKDPTVAKEEQISFRDCAEVFKSGHTTNGIYTLTFPNSTEEIKAYCDMEAGGGGWTIIQRREDGSVDFQRTWKEYKVGFGNPSGEYWLGNEFVSQLTNQQRYVLKIHLKDWEGNEAYSLYEHFYLSSEELNYRIHLKGLTGTAGKISSISQPGNDFSTKDGDNDKCICKCSQMLTGGWWFDACGPSNLNGMYYPQRQNTNKFNGIKWYYWKGSGYSLKATTMMIRPADF
notes: Bought recombinant protein with a His tag (detected by anti-HIS-tag antibody); also called human Ang-2; hAng-2
Turning to B2, the IC50 was 0.41 nM in test [1]; 0.6 nM in test [2]; 1.4 nM in test [6]; 0.49 nM in test [3]; 0.5 nM in test [4]; 2.5 nM in test [7]. The same molecule yielded an IC50 in test [5] of 0.76 nM.

B3: mouse angiopoietin-2 (ligand, UniProt O35608 19-496, looked up)
chain: YSNFRKSVDSTGRRQYQVQNGPCSYTFLLPETDSCRSSSSPYMSNAVQRDAPLDYDDSVQRLQVLENILENNTQWLMKLENYIQDNMKKEMVEIQQNVVQNQTAVMIEIGTSLLNQTAAQTRKLTDVEAQVLNQTTRLELQLLQHSISTNKLEKQILDQTSEINKLQNKNSFLEQKVLDMEGKHSEQLQSMKEQKDELQVLVSKQSSVIDELEKKLVTATVNNSLLQKQQHDLMETVNSLLTMMSSPNSKSSVAIRKEEQTTFRDCAEIFKSGLTTSGIYTLTFPNSTEEIKAYCDMDVGGGGWTVIQHREDGSVDFQRTWKEYKEGFGSPLGEYWLGNEFVSQLTGQHRYVLKIQLKDWEGNEAHSLYDHFYLAGEESNYRIHLTGLTGTAGKISSISQPGSDFSTKDSDNDKCICKCSQMLSGGWWFDACGPSNLNGQYYPQKQNTNKFNGIKWYYWKGSGYSLKATTMMIRPADF
notes: Bought recombinant protein; also called mouse Ang-2; mAng-2
B3: the IC50 was found to be 0.05 nM in test [1]; 0.07 nM in test [2]; 1.8 nM in test [6]; 0.05 nM in test [3]; 0.08 nM in test [4]; 0.65 nM in test [7]. In test [5], this molecule gave an IC50 of 0.11 nM.
